The results in this text go back to the nanobody polyreactivity screen of Harvey et al. (2022).

The nature of the data set: yeast display, Sf9 membrane polyspecificity reagent, FACS + sequencing; frameworks hold sequencing errors. Summed up:
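Polyreactivity labels are assigned by the sorting gate from which each nanobody was recovered. The gates were low and high (top ~1%), set on anti-HA fluorescence for expression and streptavidin fluorescence for reagent binding. Before sorting, galactose-induced (36–48 hours) yeast display cells were stained for 1 hour at 4 °C with 10% biotinylated, detergent-solubilized Sf9 membrane reagent.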
Take “QVQLVESGGGLVQAGGRLRLSCAASGFTFAYYAMGWYRQAPGKERELVAAIRWSGTRTYYADSVKGRFTISRDHAKNTVYLQMNSLKPEDTAVYYCAKGIWYGTSGYYYWGQGTQVTVSS”: the “polyreactivity (PSR sort gate)” value was “high polyreactivity”.
Next, “QVQLVESGGGLVQAGGSLRLSCAASGSTFKVYAIGWYRQAPGKERELVAGISSGGNTNYADSVKGRFTISRDNAKNTVYLQMNSLKPEDTAVYYCNTDWYLPRYVLLGYFSGTEDYWGQGTQVTVSS”: “low polyreactivity”; “QVQLVESGGGLVQAGGSLRLSCAASGRIFSGYAMGWYRQAPGKERELVAAISGGGSTNYADSVKGRFTISRDNAKNTVYLQMNSLKPEDTAVYYCATQYGHYPYWLYKYDYWGQGTQVTVSS”: “low polyreactivity”.
Next, “QVQLVESGGGLVQAGGSLRLSCAASGIIFGYYAMGWYRQAPGKVRELVAAISWSGGSTYYADSVKGRFTFSRDNAKNTVYLQMNSLKPEDTAVYYCNAVYVSYTYQQTRSGGYDYWGQGTQVTVSS”: “high polyreactivity”; “QVQLVESGGGLVQAGGSLRLSCAASGRTFTAYTMGWYRQAPGKERELVASITWSGGSTYYADSVKGRFTISRDNAKNTVYLQMNSLKPEDTAVYYCATAFDYGQFQLSSEFNYWGQGTQVTVSS”: “low polyreactivity”; “QVQLVESGGGLVQAGGSLRLSCAASGSIFYYNALGWYRQAPGKERELVAVISYRSGRTSYADSVKGRFTISRDNAKNTVYLQMNSLKPEDTAVYYCNAKPAVSFSRHYYRYDYWGQGTQVTVSS”: “high polyreactivity”.
The entry for “QVQLVESGGGLVQAGGSLRLSCAASGRTFLYYAMGWYRQAPGKERELVAAIRRGSSTYYADSVKGRFTISRDNAKNTVYLQMNSLKPEDTAVYYCAARGRYRIGPGRYGKRYDYWGQGTQVTVSS” is “high polyreactivity”.
For “QVQLVESGGGLVQAGGSLRLSCAASGRIFRYYAMGWYRQAPGKESELVAAINSGGSTKYADSVKGRFTISRDNAKNTVYLQMNSLKPEDTAVYYCNKDHAFSRYWYGGFDYWGQGTQVTVSS”, the “polyreactivity (PSR sort gate)” value is given as “high polyreactivity”.
Next, “QVQLVESGGRLVQEGRSLRLSCAASGSIFSRYAMGWYRQAPRKERELVAAITWSGGSTYYADSVKGRFTISRDNAKNNVYLQMNSLKPDDTAVYYCAAVGYAPYNHRYDSWGQGTQVTVSS”: “low polyreactivity”; “QVQLVESGGGLVQAGGSLRLSCAASGITFLWNARGWYRQAPGKERELVAVISIGGSTYYADSVKGRFTISRDNAKNTVYLQMNSLKPEDTAVYYCAATEGPAYDYEYWGQGTQVTVSS”: “low polyreactivity”.
Consider “QVQLVESGVGLVQAGVSLRISCAASGSIFDTYAMGWYRQAPGKERELVAAIRWTGGSTYYADSVKGRFTISRDNAKNTVYLQMNSLKREDTAVYYCATPSYGRPGFGYWGQGTQVTVSS”, for which the “polyreactivity (PSR sort gate)” value is recorded as “low polyreactivity”.
In the case of “QVQLVESGGGLVQAGGSLLLSCAASGFTLPSYAMGWYIQAPGKERELVAAISSTGRTYYADSVKGRFTISRDNAKNTVYLQMNSLKPEDTAVYYCAARQDTWDAYLSTGEFDYWGQGTQVTVSS”, the “polyreactivity (PSR sort gate)” value is given as “high polyreactivity”.
“QVQLVESGGGLVQAGGSLRLSCAASGNIFYRKARGWYRQAPGKERELVAAITSGGGSTYYADSVKGRFTISRDNAKNTVYLQMNSLKPVDTAVYYCNAYAWNYFGIKVTYDYWGQGTQVTVSS”: the “polyreactivity (PSR sort gate)” value is on record as “high polyreactivity”.
The entry for “QVQLVESGGGLVQAGGSLRLSCAASGNIFVFYVMGWYRQAPGKERELVASISSTGNTYYADSVKGRFTISRENAMNTVYLQLNRLKPEDTAVYYCAADSHQNVSGWLRWPRMDYWGQGTQVTVSA” is “low polyreactivity”; for “QVQLVESGGGLVQAGGSLRLSCAASGRIFGWYAMGWYRQAPGKERELVAAISWSGGSTYADSVKGRFTISRDNAKNTVYLQMNSLKPEDTAVYYCAADVAYVEYDYWGQGTQVTVSS” it is “low polyreactivity”; for “QVQHVESGGGLVQAGGSLRLSCAASGRIFYFNAMGWSSQAPGKERELVAAISGSGGDTYYADSVKGRFTISRDNAKNTVYLQMNSLKPEDTAVYYCAAEVYPWGQGTQVTVAS” it is “low polyreactivity”.
Next, “QVQLVESGGGLLQAGGSLRLSCAASGSIFSYYVMGWYRQAPGKERELVAAISSSGGSTYYADSVKGRFTISRDNEKNTVYLQMNSLKPEDTAVYYCAAQHYVRSSIPGFIYYYWGQGTQVTVSS”: “high polyreactivity”.
With “QVQLVESGGGLVQAGGSLRLSCAASGRIFSVYDMGWYRQAPGKERELVAAIDTSDGSTNYADSVKGRFTISRDNAKNTVYLQMNSLKPEDTAVYYCNATDSYVPFDYWGQGTQVTVSS”, the “polyreactivity (PSR sort gate)” value is “low polyreactivity”.
Next, “QVQLVESGGGLVQAGGSLRLSCAASGRILHIYAMGWYRQAPGKERELVAAISWIGTSTYYADSVKGRFTISRDNAMNTVFLQMNSLKPEDTAVYYCAATGPRMYYWGQGTQVTVSS”: “high polyreactivity”.
The entry for “QVQLVESGRGLVQAGGSLRLSCAASGRIFRVNAMGWYRQAPGKERELVAAISWGGGSTYYADSVKGRFTISRDNAKNTVYLQMNSLKPEDTAVYYCATTLVKSQSRYYYWGQGTQVTVSS” is “high polyreactivity”.
The entry for “QDQLVESGGGLVQAGGSLRLSCAASGRTFVSYAMGWYRQAPGKERELVAGISWSGDSTYYADSEKGRFTISRDNAKNTVYLQMNSLKPEDTAVYYCAAVQRTDRSAHYSWGQGTQVTLSS” is “low polyreactivity”.
Regarding “QVQLVESGGGLVQAGGSLRLSCAASGRIFSTYVMGWYRQAPGKERELVAAITWSGGSTYYADSVKGRFTISRDNAKNTVYLQMNSLKPEDTAVYYCAADEIYRYGYWGQGTLVTVSS”, the “polyreactivity (PSR sort gate)” value is recorded as “high polyreactivity”.
Regarding “QVQLHESGGGLVQAGGSLRLSCAASGTISYAGPMGWYRQAPGKEREFVAGIGVGSNTNYADSVKGRYTIIRDNAKNTVYLQMNSLKPEDTAVYYCAVGGYAPLGRPDWGQGTQVTVRS”, the “polyreactivity (PSR sort gate)” value is listed as “low polyreactivity”.
The entry for “QVQLVESGGGLVQAGGSLRLSCAASGSIFRYAMGWYRQAPGKERELVATISESGGRTYYADSVKGRFTISRDNANNTVYLQMNSLKPEDTAVYYCAADLKYYYGYRPWFQGGYWGQGTQVTVSS” is “low polyreactivity”.
For the sequence “QVQLQESGGGLVQAGGSLRLSCAASGTISQEDWMGWYRQAPGKEREFVAAIGLGSNTNYADSLKGRFTMSRDNAKNTVYLQMNSLKPEDTAVYYCAVSVWQYSDHVYRGQGTQVTVSS”, the “polyreactivity (PSR sort gate)” value is given as “low polyreactivity”.
Next, “QVQLVESGGGLVQAGGSLRLSCAASGRIFVSNVRGWYRQAPGKERELVAAIDKSGGSTYYADSVKGRFTISRDNAKNSVYLQMNSLKPEDTAVYYCAATSYRQPYRYYYWGQGTQVTVSS”: “high polyreactivity”.
The entry for “QVQLVESGGGLVQAGGSLRLSCAASGSTFSYFAMGWYRQAPGKERELVAAISWNGGSTYYADSVKGRFTISRDNAKNTVYLQMNSLKPEDTAVYYCAAHPAYRDSWGEYDYWGQGTQVTVSS” is “low polyreactivity”.
Next, “QVQLVESGGGLVQAGGSLRLSCAASGSILSSYAMGWYRQAPGKERELVAAISYTGDSTYYADSVKGRFTISRDNAKNTVYLQMNSLKPEDTAVYYCAAELLPPYYYRWLEYWGQGTQVTVSS”: “low polyreactivity”; “QVQLVESGGGLVQAGGSLRLRCASSGRTFQYYAMGWYRQAPGKEMELVAAISWSGGSTYYADSVKGRFTISRDNAKNTVYLQMNSLKPEDTAVYYCAAVVGRNGTRSYGYWGQGTQVTVSS”: “high polyreactivity”; “QVQLVESGGGLVQAGGSLRLSCAASGITFKLNAMGWYRQAPGKERELVAAISYNGVRTYYADSVKGRFTISRDNAKNTVYLQMNRLKPEDTAVYYCAALLRGQDRTMDYWGQGTQVTVSS”: “high polyreactivity”.
For “QGQLVESGGGLVQAGGSLRLSCAASGSIFGQYVMGWYRQAPGKERELVAAISGTGGSTYYADSVKGRFTISRDNAKNTVYLQMNSLKPEDTAVYYCAVVHRSSYRESGLLWRYYWGQGTQVTVSS”, the “polyreactivity (PSR sort gate)” value is “high polyreactivity”.
Next, “QVQLVESGGGLVQAGGSLRLSCAASGTTFVIYAKGWYRQAPGKERELVASISGSGGSTFYADSVKGRFTISRDNAKITVYLQMNSLKPEDTAVYYCAAAVGVGRSGGTYDYWGQGTQVTVSS”: “low polyreactivity”; “QVQLVESGGGLVQAGGSLRLSCAASGLTFVDYAMGWYRQAPGKERELVAAITSSGGSITYYADSVKGRFTISRDNAKNTVYLQMNSLKPEDTAVYYCNADYGIYTDSFRGPDYESWGQGTQVTVSS”: “low polyreactivity”.
The entry for “QVQLVESGGGLVQAGGSLRLSCAASGFTFPRYAMGWYRQAPGKERELVAAITTSVGNTYYADSVKGRFTISRDNAKNTVYLQMNSLKPEDTAVYYCSTIYDHFDYWGQGTQVTVSS” is “low polyreactivity”.
Next, “QFQLVESGGGLVQAGGSLRLSCAASGSTFNYNAMGWYRQAPGKERELVAAISSSGGSTYYADSVKGRITISRDNAKNTVYLQMNSLKPEDTAVYSCATGGSSRVRTEGDYWGQGTQVTVSS”: “low polyreactivity”.
With “QVQLVESGGGLVQAGGSLRLSCAASGRTFAGNAMGWYRQAPGKERELVATITSRGTITYYADSVKGRFTISRDNAKNTVYLQMHSLKPEDTAVSYCNVRYYFPRYQQPYQLNEYYYWGQGTQVTVSS”, the “polyreactivity (PSR sort gate)” value is reported as “low polyreactivity”.
The entry for “QVQLVESGGGLVQAGGSLRLSCAASGFNFEVNAMGWYRQAPGKERELVAAITTDGSTNYADSVNGRFSSSRDNAKNTVYIQMTSLKPEDTAVYYCAARVQHYLGTDDYWGQGTQVTVSS” is “low polyreactivity”; for “QVQLVESGGGLVQAGGSLRLSCAASGIIFYKNDMGWYRQAPGKERELVAAINRSGGRTYYADSVKGRFTISRDNAKNTVYLQMNSLKPEDTAVYYCATDKVSHRRYDYWGQGTLVTVSS” it is “high polyreactivity”.
Take “QVQLVESGGGLVQAGGSLRLSCAASGSIFTWYTMGWYRQAPGKERELVAAISWSGGRTYYADSVKGRFTISRDNAKHTVYLQMNSLKPEDTAVYYCAASAYGRPPFDYWGQGTQVTVSS”: the “polyreactivity (PSR sort gate)” value is listed as “high polyreactivity”.
As for “QVQLVESGGGLVQAGGSLRLSCAASGSTFILNAMGWYRQAPGKERELVATISSSDTSTYYADSVKGRFTISRDNANNTVYLQMNSLKPEDTAVYYCNADYYTTSYLQRVYHYGVEYDYWGQGTQVTVSS”, the “polyreactivity (PSR sort gate)” value was “low polyreactivity”.
